These results are taken from PMC9866879, “BREVIPEDICELLUS Positively Regulates Salt-Stress Tolerance in Arabidopsis thaliana”.

Data set [1] deals with T1, BP (B…US) (Arabidopsis thaliana, UniProt P46639 1-398).
T1 sequence: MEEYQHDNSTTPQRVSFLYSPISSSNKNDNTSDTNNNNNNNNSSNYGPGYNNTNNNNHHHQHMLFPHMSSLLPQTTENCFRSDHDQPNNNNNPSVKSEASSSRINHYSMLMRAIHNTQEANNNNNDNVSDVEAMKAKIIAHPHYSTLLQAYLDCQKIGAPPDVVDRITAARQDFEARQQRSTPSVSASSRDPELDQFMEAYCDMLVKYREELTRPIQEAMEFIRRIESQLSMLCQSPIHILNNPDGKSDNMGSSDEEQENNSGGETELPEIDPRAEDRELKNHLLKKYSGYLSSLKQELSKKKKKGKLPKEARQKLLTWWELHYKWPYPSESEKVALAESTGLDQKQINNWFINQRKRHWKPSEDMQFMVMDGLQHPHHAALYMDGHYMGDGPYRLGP
The experiment in a line: competition; unlabeled competitor against biotin-labelled N1; signal gradually decreased; LightShift Chemiluminescent EMSA kit (Thermo) per manufacturer's protocol; buffer, salt, pH and temperature not stated. The note with it: protein: recombinant; tags: GST (pGEX4T-3); blunt. (A gel shift assay detects complexes by their altered migration in electrophoresis.)

For data set [2], the target named is T1, BP (B…US). The experiment in a line: EMSA; LightShift Chemiluminescent EMSA kit (Thermo) per manufacturer's protocol; buffer, salt, pH and temperature not stated. As to conditions: protein: recombinant; tags: GST (pGEX4T-3); label: biotin; blunt.

B1: XTH7 promoter probe, unlabeled competitor (dsDNA)
DNA 1: TGTAATGCTGACACGTGTCCCAGT
DNA 2: ACTGGGACACGTGTCAGCATTACA
Consider B1, for which the binding result in the data set with BP (B…US) [1] is recorded as “binds”.

B2: XTH7 promoter probe (TGAC) (dsDNA)
DNA 1: TGTAATGCTGACACGTGTCCCAGT
DNA 2: ACTGGGACACGTGTCAGCATTACA
B2: the binding result with BP (B…US) [2] is on record as “binds”.
